Experimental data taken from the DeepSol protein solubility set.

assay: soluble on expression in E. coli; label from the status in PepcDB or PDB records

Soluble on expression in E. coli, not soluble:
MRIALIFLVLLVSFASSCKNFDKYMNMFCRYGLEQSPCTVEDYSTYKSACCAMKNNCSYKEFPKDDVCCFTVECLKRCFPEKLLKNDKVY, MSLNLIFKKKSYSFKLSTKVENSKTTYLTKLGWIIKLTSNDKKIGFGEVSPLLEEDLKKCAKQLNMIPKNVEAFNLSEQINIFHPCIQSAINSALAEINGKIIFKENYTFDEIDKTAILLNSENVITELNEIKQRQSIIGKSVTIKWKVALRDNHEEEANLEEILSQIGNNIKLRIDANGSWSRKIANRWADILKDNKNIDWLEQPLCVEDIEGMKELNKKIPIALDESLLKFPTLIDEWKGWQIRRPSQENNPVKLLRELENKKALISISTSFETGIGKRWLYHLSSLQLQGPTPKVPGLGMNKFPNSFLFLNEAKKIWDQLEGHHHHHH, MTHNIHDNISQWMKSNEETPIVMSSRIRLARNLENHVHPLMYATENDGFRVINEVQDALPNFELMRLDQMDQQSKMKMVAKHLISPELIKQPAAAVLVNDDESLSVMINEEDHIRIQAMGTDTTLQALYNQASSIDDELDRSLDISYDEQLGYLTTCPTNIGTGMRASVMLHLPGLSIMKRMTRIAQTINRFGYTIRGIYGEGSQVYGHTYQVSNQLTLGKSELEIIETLTEVVNQIIHEEKQIRQKLDTYNQLETQDRVFRSLGILQNCRMITMEEASYRLSEVKLGIDLNYIELQNFKFNELMVAIQSPFLLDEEDDKSVKEKRADILREHIK, MTSFTGITAVANATNEMAMFKQAMKEVAAHPEWMSSRQIERQRWNPYSMEGGSTCAISGENFAIVASDTRMTQNDINILTRDAEKIQILNDNIILTTSGFYGDVLQLKKVLQSRLHKYRFDYRSDMSVDLCAELLSRNLYYRRFFPYYTGAILAGIDEHGKGAVFSYDPIGCIERLGYSASGAAEPMIIPFLDCQIGHVTLSEGYERPELTLDRAISLMKDSFRGAAEREISTGDKIHLVIAEAGKPVVVKFLPLRED, MAFLLKLEPDMQGKVDLFRARIAQEAEDLVSTFFPQKVLELNSRVQELRLQDLSRIHSVPTSEPLATPGNKGDGPNQNLPVLLTQFSIKVPALLGSEGQLLRSNQHLVELTEWVKPEIKLLREKCNTVHM, MGSDKIHHHHHHMNYNKLSSATIQGIEAMKIDVEVDFDNRSVFNDIDVVGLGDTAVKESRKRVKSAILNSGFSLPHGKYVVNLAPGDVRKEGSMLDLPIALCILASTGIVQVSENILAIGELSLNGEVKRVNGVLPVLLSLSEMFSGTVLIPKENEEEAKCVKELDIYAVESLRECVEFLRGDRTLKRIEYSGIENTNLEYEIDFSDVRDHEMVKRAVEIAVAGFHNILMVGNPGSGKTMIAKRIPTIFPPMSEEEILETSKVYSASGYPGIVKLRPFRAPHHTASTVSIIGGGTNPRPGEISLAHNGVLFLDELPEFKRDVLEALRQPLEEGIVTVARAKFTVTYPARFMLVGAMNPCPCGNLGDPKQPCVCSPRDIMRYRKKISGPLLDRMDLVINVPKLSFEEMMKKPEGEKSSSIRERVMKAREIQKRRFRDTHISCNSQMSHRMLRRFVQLDEKSEDLLKRYVERYGLSGRKIDKVLKISRTIADLEGSNGVEMSHLAEALQYRFRES, MGSDKIHHHHHHMMVLTLKDFEQTYFYKTELIQLCKVYGLPTYGTKAELNKYLTLYLSGTPACDIKVNRKHTTSRNKTKITLETKILGEGFSFNQEARKLFAEYFGKEKFSFKKEMAVIKRQAEHNGETKMTVRDLLERYQEMVGQGNVLRETAEEATYQWNNFVRDFCKSSESQNYHQKLKVAAILWEKVKNSKNDKKFEASLVQKYEKNISNYMNK

Soluble on expression in E. coli, soluble:
MKLERVLPFARSLLQTAVKEGDYAVDATLGNGHDTCFLAEIVGDNGKVFGFDIQKEAIESSTTRLKEKELFERTVLVHDSHDTLLSILPEDAKGKVTGAIFNLGYLPGGDKHIVTKPNSTISAIEQLLEVMAPEGIIVLVIYHGHPEGQVERDAVLKFAEELDQKQAHVLRYGFINQQNNPPFIVAIEKRLEHHHHHH, MPYKNILTLISVNNDNFENYFRKIFLDVRSSGSKKTTINVFTEIQYQELVTLIREALLENIDIGYELFLWKKNEVDIFLKNLEKSEVDGLLVYCDDENKVFMSKIVDNLPTAIKRNLIKDFCRKLS, MVKETHRFETFTEEPIRLIGEEGEWLGDFPLDLEGEKLRRLYRDMLAARMLDERYTILIRTGKTSFIAPAAGHEAAQVAIAHAIRPGFDWVFPYYRDHGLALALGIPLKELLGQMLATKADPNKGRQMPEHPGSKALNFFTVASPIASHVPPAAGAAISMKLLRTGQVAVCTFGDGATSEGDWYAGINFAAVQGAPAVFIAENNFYAISVDYRHQTHSPTIADKAHAFGIPGYLVDGMDVLASYYVVKEAVERARRGEGPSLVELRVYRYGPHSSADDDSRYRPKEEVAFWRKKDPIPRFRRFLEARGLWNEEWEEDVREEIRAELERGLKEAEEAGPVPPEWMFEDVFAEKPWHLLRQEALLKEEL, MEWKGRDVISIRDFSKEDIEVVLSTAERLEKEMKEKGQLEYAKGKILATLFFEPSTRTRLSFESAMHRLGGSVIGFAEASTSSVKKGESLRDTIKTVEQYSDVIVIRHPKEGAARLAAEVADIPVINAGDGSNQHPTQTLLDLYTIKKEFGTIDGLKIGLLGDLKYGRTVHSLAEALAFYDVELYLISPELLRMPKHIVEELRERGMKIVETTKLEEVIGELDVLYVTRIQKERFPDEQEYLKVKGSYQVNLKILENVKDSLRIMHPLPRVDEIHPEVDKTKHAIYFKQVFNGVPVRMALLALVLGVI, WQGLSSKGDLPQVEITKAFFAKQADEVTLQQADVVLVLQQEDGWLYGERLRDGETGWFPEDFARFI, SNAMDIVSVALQRYSTKAFDPSKKLTAEEADKIKTLLQYSPSSTNSQPWHFIVASTEEGKARVAKSAAGNYTFNERKMLDASHVVVFCAKTAMDDAWLERVVDQEDADGRFATPEAKAANDKGRRFFADMHRVSLKDDHQWMAKQVYLNVGNFLLGVAAMGLDAVPIEGFDAEVLDAEFGLKEKGYTSLVVVPVGHHSVEDFNAGLPKSRLPLETTLTEV, MNVRNGKASTLRTNDVEPIKDSFSILIIGVDTSTTRASNGNPRSDSLILATFNVKDARVEMTSIPRDSYVHIEDSAKEINKYTKINAAHAYGGPELTMKTVEEEFKIPIDYYVRFDFDAFLKIIDALDGIDVDVPVNFTEQDSKDNQNAITLKKGPQHLNAEQALALARTRHIDSDIERGKRQQLIIKSIVSEATSVSSVSKYSDIIEVVGDNMKTNLTFNQMLSIAKFGMSNKIDIKSLNLKGDSNPMNGIYYYKLNESSVQSISNEFASELGIKQPFPGAAAYSDESSTASNLEHHHHHH, MSLRRILITGANGFVGQILCSMLRQAGHHVIALVGAESALSSHADESVRCDIRDASGLEQALCRAAPTHVVHLAAITHVPTSFNNPVLTWQTNVMGSVNLLQALQRSAPEAFVLFVSSSEVYGETFKQGTALGEDSACKPMNPYAASKLAAEAAFNEYFRQGRKGIVVRPFNHIGARQSPDFATASFARQIALIEAGKQAPQLKVGNLQAARDFLDVHDVCDAYVALLQLADEQERYPGCLNICRGEPTSLQTLLTQLMALSSSVIEVTIDPDRMRPSDIPSAFGNNSAMRCATGWKPKTKLDDTLEALLNYWRHEVISAEGHHHHHH, MSPILAKNIVYVAQIKGQITSYTYDQFDRYITIAEQDNAEAIIIELDTPGGRADAMMNIVQRIQQSKIPVIIYVYPPGASAASAGTYIALGSHLIAMAPGTSIGACRPILGYSQNGSIIEAPPKITNYFIAYIKSLAQESGRNATIAEEFITKDLSLTPEEALKYGVIEVVARDINELLKKSNGMKTKIPVNGRYVTLNFTNVEVRYLAPSFKDKLISYITDLEHHHHHH, MSALAVALARQSESHADCPLFNDPYAQVFIDAALSRGCQLPSDETSERINGIANYASSRTKWFDEYFIAAGAHGLEQMVIVAAGLDARAWRLPWVAGTTLFEIDHPGVLKFKNEALHEHGESPSVSRYVPVPADLSDGWSERLRDAGFDVSEPTAWAVEGLLPYVADGPHLLFDRIHEISPAGSRLAVEAVGTGVADWLSTQGWQVTMIGAQELMTRYGRCGDHSDTDAGMDTVFVNATRTR, MKRKESAFKSMLKQAAPPIELDAVWEDIRERFVKEPAFEDITLESERKRIFKDFMHVLEHECQH
